# Legend:
# Assay in all cases: SEC
# [1] = target: human CYP11A1 (side-chain cleavage enzyme), N-terminally truncated and modified, C-terminally His-tagged (human) (UniProt P05108)
# [2] = target: human CYP11B2 (aldosterone generating enzyme), N-terminally truncated and modified, C-terminally His-tagged (human) (UniProt P19099)
# [3] = target: human CYP11B1 (11β-hydroxylase), N-terminally truncated and modified, C-terminally His-tagged (human) (UniProt P15538)
substance,measurement,setting,value
"human CYP11A1 (side-chain cleavage enzyme), N-terminally truncated and modified, C-terminally His-tagged (from UniProt P05108 40-521)",stoichiometry N,[1],4
"human CYP11B2 (aldosterone generating enzyme), N-terminally truncated and modified, C-terminally His-tagged (from UniProt P19099 25-503)",stoichiometry N,[2],4
"human CYP11B1 (11β-hydroxylase), N-terminally truncated and modified, C-terminally His-tagged (from UniProt P15538 25-503) (enzyme)",stoichiometry N,[3],4
